PMC3386215 (Molecular Biology of the Cell, 2012)

Target: T1, His-Msb3 (S. cerevisiae, UniProt P48566 1-633)
T1 sequence: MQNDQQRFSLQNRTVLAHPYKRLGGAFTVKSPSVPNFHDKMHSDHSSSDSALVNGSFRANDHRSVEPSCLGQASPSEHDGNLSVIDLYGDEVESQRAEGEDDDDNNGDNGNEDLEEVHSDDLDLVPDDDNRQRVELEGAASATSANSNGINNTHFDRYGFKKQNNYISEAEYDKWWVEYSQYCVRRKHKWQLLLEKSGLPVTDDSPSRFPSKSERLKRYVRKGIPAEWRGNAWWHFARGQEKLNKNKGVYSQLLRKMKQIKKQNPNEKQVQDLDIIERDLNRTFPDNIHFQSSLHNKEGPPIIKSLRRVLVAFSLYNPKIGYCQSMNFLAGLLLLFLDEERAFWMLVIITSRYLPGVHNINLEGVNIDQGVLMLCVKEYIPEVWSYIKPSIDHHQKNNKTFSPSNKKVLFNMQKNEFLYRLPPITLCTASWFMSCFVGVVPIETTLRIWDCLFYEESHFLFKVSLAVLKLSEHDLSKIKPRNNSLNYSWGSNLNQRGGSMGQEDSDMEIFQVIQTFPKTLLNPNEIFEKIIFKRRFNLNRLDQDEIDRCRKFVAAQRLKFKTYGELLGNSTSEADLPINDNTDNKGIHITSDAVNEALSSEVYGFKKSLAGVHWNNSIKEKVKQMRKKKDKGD
Experiment: pull-down

B1: GST-Vps21 (preloaded with GDP) (enzyme)
chain: MNTSVTSIKLVLLGEAAVGKSSIVLRFVSNDFAENKEPTIGAAFLTQRVTINEHTVKFEIWDTAGQERFASLAPMYYRNAQAALVVYDVTKPQSFIKARHWVKELHEQASKDIIIALVGNKIDMLQEGGERKVAREEGEKLAEEKGLLFFETSAKTGENVNDVFLGIGEKIPLKTAEEQNSASNERESNNQRVDLNAANDGTSANSACSC
- binding result: binds
